Experimental data: patent publication US20100021390A1, “Fluorescent Analogs Of The Islet Amyloid Polypeptide” (The Research Foundation of State University of New York, priority 2008, published 2010)
One block for each molecule: values may come before it.

Legend:
[1] = Control fluorescence of small p-cyanophenylalanine peptide in solvents and buffer; assay type: physicochemical
From the text: In vitro assays of amyloid formation often involve solubilizing the peptide of interest in a fluorinated alcohol, typically hexafluoroisopropanol (HFIP). The fibrillization reaction is initiated by diluting the stock solution into aqueous buffer. […] A small, soluble p-cyanophenylalanine containing peptide (Gly-PheC≡N-Ala-Ala) was synthesized for the control studies. […] The fluorescence intensity was reduced by approximately 30%.

[2] = Thioflavin-T fluorescence kinetic assay of amyloid (fibril) formation by the peptides; assay type: physicochemical; conditions: 32 μM peptide, 20 mM Tris-HCl, 2% HFIP
From the text: (§1) Wild-type IAPP, IAPP-Y37FC≡N and a G-FCN-A-A tetrapeptide were synthesized and the disulfide bond in IAPP was formed using dimethyl sulfoxide (DMSO) based oxidation as described in Abedini et al., Analytical Biochemistry 351, 181-186 (2006) incorporated herein by reference. The synthesis of peptides is well known in the art. Synthesizers such as the Applied Biosystems 433A are commercially available with ample instructions for use and are generally accessible to practitioners in the art. Fmoc-4-cyanoPhe was obtained from NovaBiochem. Peptides were purified via reverse phase HPLC and the identities confirmed by MALDI mass spectroscopy. Thioflavin-T fluorescence experiments were performed with a Jobin Yvon Horiba fluorescence spectrophotometer or with an Applied Phototechnology fluorescence spectrophotometer. P-cyanoPhe fluorescence was excited at 240 nm and detected at 296 nm with instrument slit widths of 10 nm on an Applied Photon Technologies fluorimeter. […]
(§2) Fibrillization reactions were initiated by diluting the stock 50-fold into buffered (20 mM Tris-HCl, pH 7.4) aqueous solution. […] The spectrum is the average of three repeats in a 0.1 cm quartz cuvette and recorded over a range of 190-250 nm, at 1 nm intervals, with an averaging time of three seconds per scan. […]

[3] = p-Cyanophenylalanine fluorescence kinetic assay of amyloid formation by the peptides; assay type: physicochemical; conditions: 32 μM peptide, 20 mM Tris-HCl, 2% HFIP
From the text: as §1, §2

hIAPP-Y37FC≡N = target: T1, hIAPP-Y37FC≡N (Homo sapiens, UniProt P10997); experiment: p-Cyanophenylalanine fluorescence-detected kinetics of hIAPP-Y37FC≡N amyloid formation in presence and absence of rifampicin; assay type: biochemical; conditions: no rifampicin, 32 μM peptide
T1 construct: hIAPP is 37 residues in length, contains a disulfide bond linking residues 2 and 7 and has an amidated C-terminus; made in house; host or cells: chemical synthesis (Fmoc solid phase; Fmoc-4-cyanoPhe from NovaBiochem)
T1 sequence (P10997 with tags, fused parts or gaps): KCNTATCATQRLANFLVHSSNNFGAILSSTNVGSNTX
Procedure: Thioflavin-T Fluorescence. All fluorescence experiments were performed with a Jobin Yvon Horiba fluorescence spectrophotometer or with an Applied Phototechnology Fluorescence Spectrophotometer. An excitation wavelength of 450 nm and emission wavelength of 485 nm was used for the thioflavin-T studies. The excitation and emission slits were set at 5 nm. A 1.0 cm cuvette was used and each point was averaged for 1 minute. All solutions for these studies were prepared by diluting filtered stock solution (0.45 μm filter) into a Tris-HCl buffer (pH 7.4) and thioflavin-T solution immediately before the measurement. The final concentration was 32 μM peptide and 25 μM thioflavin-T with or without rifampicin in 2% HFIP for all experiments. The final concentration of ascorbic acid used in antioxidant experiments was 83 μM. All solutions were stirred during the fluorescence experiments. P-cyanophenylalanine fluorescence was excited at 240 nm and detected at 296 nm, with both excitation and emission slits of 10 nm.

[4] = target: the molecule itself; experiment: cell-based or functional assay

- reduction of fluorescence intensity ([1]; 20 mM Tris-HCl): approximately 30%
- fluorescence intensity in water vs 2% HFIP ([1]; water, 2% HFIP, very similar in 100% HFIP): the same
Molecule: Gly-PheC≡N-Ala-Ala

Molecule: KCNTATCATQRLANFLVHSSNNFGAILSSTNVGSNTFC≡N (HELM PEPTIDE1{K.C.N.T.A.T.C.A.T.Q.R.L.A.N.F.L.V.H.S.S.N.N.F.G.A.I.L.S.S.T.N.V.G.S.N.T.[N#Cc1ccc(C[C@H](N[*:1])C(=O)[*:2])cc1].[am]}$PEPTIDE1,PEPTIDE1,2:R3-7:R3$$$V2.0; N-terminus assumed; SMILES CC[C@H](C)[C@H](NC(=O)[C@H](C)NC(=O)CNC(=O)[C@H](Cc1ccccc1)NC(=O)[C@H](CC(N)=O)NC(=O)[C@H](CC(N)=O)NC(=O)[C@H](CO)NC(=O)[C@H](CO)NC(=O)[C@H](Cc1c[nH]cn1)NC(=O)[C@@H](NC(=O)[C@H](CC(C)C)NC(=O)[C@H](Cc1ccccc1)NC(=O)[C@H](CC(N)=O)NC(=O)[C@H](C)NC(=O)[C@H](CC(C)C)NC(=O)[C@H](CCCNC(=N)N)NC(=O)[C@H](CCC(N)=O)NC(=O)[C@@H](NC(=O)[C@H](C)NC(=O)[C@@H]1CSSC[C@H](NC(=O)[C@@H](N)CCCCN)C(=O)N[C@@H](CC(N)=O)C(=O)N[C@@H]([C@@H](C)O)C(=O)N[C@@H](C)C(=O)N[C@@H]([C@@H](C)O)C(=O)N1)[C@@H](C)O)C(C)C)C(=O)N[C@@H](CC(C)C)C(=O)N[C@@H](CO)C(=O)N[C@@H](CO)C(=O)N[C@H](C(=O)N[C@@H](CC(N)=O)C(=O)N[C@H](C(=O)NCC(=O)N[C@@H](CO)C(=O)N[C@@H](CC(N)=O)C(=O)N[C@H](C(=O)N[C@@H](Cc1ccc(C#N)cc1)C(N)=O)[C@@H](C)O)C(C)C)[C@@H](C)O) [hIAPP-Y37FC≡N, human IAPP with Tyr-37 replaced with p-cyanoPhe]
- time of the growth period (20 to 80% completion) by thioflavin-T fluorescence ([2]; pH 7.4): 247 ± 12 s
- midpoint (t50) of amyloid formation as determined by thioflavin-T fluorescence ([2]; pH 7.4, 25° C.): 1,130±100 s
- time of the growth period (20 to 80% completion) by p-cyanophenylalanine fluorescence ([3]; pH 7.4): 248 ± 12 s
- midpoint (t50) of amyloid formation as determined by p-cyanophenylalanine fluorescence ([3]; pH 7.4, 25° C.): 1,100±100 s
- growth phase (10% to 80% completion) in absence of the drug (hIAPP-Y37FC≡N): 6 min
- t50 time when rifampicin is absent (hIAPP-Y37FC≡N; 2% HFIP, 25° C., pH 7.4): 18 min

B1: hIAPP-Y37FC≡N (peptide)
peptide: KCNTATCATQRLANFLVHSSNNFGAILSSTNVGSNTF
HELM: PEPTIDE1{K.C.N.T.A.T.C.A.T.Q.R.L.A.N.F.L.V.H.S.S.N.N.F.G.A.I.L.S.S.T.N.V.G.S.N.T.[N#Cc1ccc(C[C@H](N[*:1])C(=O)[*:2])cc1].[am]}$PEPTIDE1,PEPTIDE1,2:R3-7:R3$$$V2.0; N-terminus assumed
SMILES: CC[C@H](C)[C@H](NC(=O)[C@H](C)NC(=O)CNC(=O)[C@H](Cc1ccccc1)NC(=O)[C@H](CC(N)=O)NC(=O)[C@H](CC(N)=O)NC(=O)[C@H](CO)NC(=O)[C@H](CO)NC(=O)[C@H](Cc1c[nH]cn1)NC(=O)[C@@H](NC(=O)[C@H](CC(C)C)NC(=O)[C@H](Cc1ccccc1)NC(=O)[C@H](CC(N)=O)NC(=O)[C@H](C)NC(=O)[C@H](CC(C)C)NC(=O)[C@H](CCCNC(=N)N)NC(=O)[C@H](CCC(N)=O)NC(=O)[C@@H](NC(=O)[C@H](C)NC(=O)[C@@H]1CSSC[C@H](NC(=O)[C@@H](N)CCCCN)C(=O)N[C@@H](CC(N)=O)C(=O)N[C@@H]([C@@H](C)O)C(=O)N[C@@H](C)C(=O)N[C@@H]([C@@H](C)O)C(=O)N1)[C@@H](C)O)C(C)C)C(=O)N[C@@H](CC(C)C)C(=O)N[C@@H](CO)C(=O)N[C@@H](CO)C(=O)N[C@H](C(=O)N[C@@H](CC(N)=O)C(=O)N[C@H](C(=O)NCC(=O)N[C@@H](CO)C(=O)N[C@@H](CC(N)=O)C(=O)N[C@H](C(=O)N[C@@H](Cc1ccc(C#N)cc1)C(N)=O)[C@@H](C)O)C(C)C)[C@@H](C)O
- midpoint (t50) of amyloid formation, p-cyanophenylalanine fluorescence [4]: 1100 s
- midpoint (t50) of amyloid formation, thioflavin-T fluorescence [4]: 1130 s

B2: hIAPP-F15FC≡N (peptide)
peptide: KCNTATCATQRLANFLVHSSNNFGAILSSTNVGSNTY
HELM: PEPTIDE1{K.C.N.T.A.T.C.A.T.Q.R.L.A.N.[N#Cc1ccc(C[C@H](N[*:1])C(=O)[*:2])cc1].L.V.H.S.S.N.N.F.G.A.I.L.S.S.T.N.V.G.S.N.T.Y.[am]}$PEPTIDE1,PEPTIDE1,2:R3-7:R3$$$V2.0; N-terminus assumed
SMILES: CC[C@H](C)[C@H](NC(=O)[C@H](C)NC(=O)CNC(=O)[C@H](Cc1ccccc1)NC(=O)[C@H](CC(N)=O)NC(=O)[C@H](CC(N)=O)NC(=O)[C@H](CO)NC(=O)[C@H](CO)NC(=O)[C@H](Cc1c[nH]cn1)NC(=O)[C@@H](NC(=O)[C@H](CC(C)C)NC(=O)[C@H](Cc1ccc(C#N)cc1)NC(=O)[C@H](CC(N)=O)NC(=O)[C@H](C)NC(=O)[C@H](CC(C)C)NC(=O)[C@H](CCCNC(=N)N)NC(=O)[C@H](CCC(N)=O)NC(=O)[C@@H](NC(=O)[C@H](C)NC(=O)[C@@H]1CSSC[C@H](NC(=O)[C@@H](N)CCCCN)C(=O)N[C@@H](CC(N)=O)C(=O)N[C@@H]([C@@H](C)O)C(=O)N[C@@H](C)C(=O)N[C@@H]([C@@H](C)O)C(=O)N1)[C@@H](C)O)C(C)C)C(=O)N[C@@H](CC(C)C)C(=O)N[C@@H](CO)C(=O)N[C@@H](CO)C(=O)N[C@H](C(=O)N[C@@H](CC(N)=O)C(=O)N[C@H](C(=O)NCC(=O)N[C@@H](CO)C(=O)N[C@@H](CC(N)=O)C(=O)N[C@H](C(=O)N[C@@H](Cc1ccc(O)cc1)C(N)=O)[C@@H](C)O)C(C)C)[C@@H](C)O
- midpoint (t50) of amyloid formation, p-cyanophenylalanine fluorescence [4]: 936 s
- midpoint (t50) of amyloid formation, thioflavin-T fluorescence [4]: 913 s

B3: hIAPP-F23FC≡N (peptide)
peptide: KCNTATCATQRLANFLVHSSNNFGAILSSTNVGSNTY
HELM: PEPTIDE1{K.C.N.T.A.T.C.A.T.Q.R.L.A.N.F.L.V.H.S.S.N.N.[N#Cc1ccc(C[C@H](N[*:1])C(=O)[*:2])cc1].G.A.I.L.S.S.T.N.V.G.S.N.T.Y.[am]}$PEPTIDE1,PEPTIDE1,2:R3-7:R3$$$V2.0; N-terminus assumed
SMILES: CC[C@H](C)[C@H](NC(=O)[C@H](C)NC(=O)CNC(=O)[C@H](Cc1ccc(C#N)cc1)NC(=O)[C@H](CC(N)=O)NC(=O)[C@H](CC(N)=O)NC(=O)[C@H](CO)NC(=O)[C@H](CO)NC(=O)[C@H](Cc1c[nH]cn1)NC(=O)[C@@H](NC(=O)[C@H](CC(C)C)NC(=O)[C@H](Cc1ccccc1)NC(=O)[C@H](CC(N)=O)NC(=O)[C@H](C)NC(=O)[C@H](CC(C)C)NC(=O)[C@H](CCCNC(=N)N)NC(=O)[C@H](CCC(N)=O)NC(=O)[C@@H](NC(=O)[C@H](C)NC(=O)[C@@H]1CSSC[C@H](NC(=O)[C@@H](N)CCCCN)C(=O)N[C@@H](CC(N)=O)C(=O)N[C@@H]([C@@H](C)O)C(=O)N[C@@H](C)C(=O)N[C@@H]([C@@H](C)O)C(=O)N1)[C@@H](C)O)C(C)C)C(=O)N[C@@H](CC(C)C)C(=O)N[C@@H](CO)C(=O)N[C@@H](CO)C(=O)N[C@H](C(=O)N[C@@H](CC(N)=O)C(=O)N[C@H](C(=O)NCC(=O)N[C@@H](CO)C(=O)N[C@@H](CC(N)=O)C(=O)N[C@H](C(=O)N[C@@H](Cc1ccc(O)cc1)C(N)=O)[C@@H](C)O)C(C)C)[C@@H](C)O
- midpoint (t50) of amyloid formation, p-cyanophenylalanine fluorescence [4]: 982 s
- midpoint (t50) of amyloid formation, thioflavin-T fluorescence [4]: 972 s
